# Results from publication PMC3508667 (Biochemistry, 2012).
# Target: hen egg white lysozyme (hen) (UniProt P00698)
# Assay: SPR
# hen egg white lysozyme (hen), sequence (P00698 19-147): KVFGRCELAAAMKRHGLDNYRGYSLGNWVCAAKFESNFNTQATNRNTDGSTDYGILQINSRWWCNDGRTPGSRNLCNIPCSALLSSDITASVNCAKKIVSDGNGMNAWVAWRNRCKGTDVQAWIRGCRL
row,Kd,Molecule
1,4.03 nM,"^5FW-scFv (HyHEL10 scFv, all Trp residues substituted with 5-fluorotryptophan)"

# Target: hen egg white lysozyme (Gallus gallus (hen egg white), UniProt P00698)
# Assay: SPR
# hen egg white lysozyme, sequence (P00698 19-147): as above
row,Molecule,Kd
1,"(Phe94)-scFv (scFv, V domains shown) VH: DIQLQESGPSLVKPSQTLSLTCSVTGDSITSDYWSWIRKFPGNRLEYMGYVSYSGSTYYNPSLKSRISITRDTSKNQYYLDLNSVTTEDTATYYCANWDGDYWGQGTLVTVSA VL: DIVLTQSPATLSVTPGNSVSLSCRASQSIGNNLHWYQQKSHESPRLLIKYASQSISGIPSRFSGSGSGTDFTLSINSVETEDFGMYFCQQSNSFPYTFGGGTKLEIT",0.272 nM
2,"^5FW(Phe94)-scFv (scFv, V domains shown) VH: DIQLQESGPSLVKPSQTLSLTCSVTGDSITSDYWSWIRKFPGNRLEYMGYVSYSGSTYYNPSLKSRISITRDTSKNQYYLDLNSVTTEDTATYYCANWDGDYWGQGTLVTVSA VL: DIVLTQSPATLSVTPGNSVSLSCRASQSIGNNLHWYQQKSHESPRLLIKYASQSISGIPSRFSGSGSGTDFTLSINSVETEDFGMYFCQQSNSFPYTFGGGTKLEIT",1.99 nM

# Next, values leading:
row,Kd,Molecule
1,4.22 nM,"^5FW(Phe36)-scFv (scFv, V domains shown) VH: DIQLQESGPSLVKPSQTLSLTCSVTGDSITSDYWSFIRKFPGNRLEYMGYVSYSGSTYYNPSLKSRISITRDTSKNQYYLDLNSVTTEDTATYYCANWDGDYWGQGTLVTVSA VL: DIVLTQSPATLSVTPGNSVSLSCRASQSIGNNLHWYQQKSHESPRLLIKYASQSISGIPSRFSGSGSGTDFTLSINSVETEDFGMYFCQQSNSWPYTFGGGTKLEIT"
2,1.22 nM,"^5FW(Phe34)-scFv (scFv, V domains shown) VH: DIQLQESGPSLVKPSQTLSLTCSVTGDSITSDYFSWIRKFPGNRLEYMGYVSYSGSTYYNPSLKSRISITRDTSKNQYYLDLNSVTTEDTATYYCANWDGDYWGQGTLVTVSA VL: DIVLTQSPATLSVTPGNSVSLSCRASQSIGNNLHWYQQKSHESPRLLIKYASQSISGIPSRFSGSGSGTDFTLSINSVETEDFGMYFCQQSNSWPYTFGGGTKLEIT"
3,0.559 nM,"(Phe36)-scFv (scFv, V domains shown) VH: DIQLQESGPSLVKPSQTLSLTCSVTGDSITSDYWSFIRKFPGNRLEYMGYVSYSGSTYYNPSLKSRISITRDTSKNQYYLDLNSVTTEDTATYYCANWDGDYWGQGTLVTVSA VL: DIVLTQSPATLSVTPGNSVSLSCRASQSIGNNLHWYQQKSHESPRLLIKYASQSISGIPSRFSGSGSGTDFTLSINSVETEDFGMYFCQQSNSWPYTFGGGTKLEIT"
4,0.266 nM,"(Phe34)-scFv (scFv, V domains shown) VH: DIQLQESGPSLVKPSQTLSLTCSVTGDSITSDYFSWIRKFPGNRLEYMGYVSYSGSTYYNPSLKSRISITRDTSKNQYYLDLNSVTTEDTATYYCANWDGDYWGQGTLVTVSA VL: DIVLTQSPATLSVTPGNSVSLSCRASQSIGNNLHWYQQKSHESPRLLIKYASQSISGIPSRFSGSGSGTDFTLSINSVETEDFGMYFCQQSNSWPYTFGGGTKLEIT"
